Source: patent US7115267

Tests used:
mu opiate receptor = test: cell-based or functional assay
[1] = biological target: p141-ubiquitin fusion protein (human) (UniProt P0CG47); test: cell-based or functional assay
Sequence of p141-ubiquitin fusion protein (human) (P0CG47 other isoform, or with tags, fused parts or gaps): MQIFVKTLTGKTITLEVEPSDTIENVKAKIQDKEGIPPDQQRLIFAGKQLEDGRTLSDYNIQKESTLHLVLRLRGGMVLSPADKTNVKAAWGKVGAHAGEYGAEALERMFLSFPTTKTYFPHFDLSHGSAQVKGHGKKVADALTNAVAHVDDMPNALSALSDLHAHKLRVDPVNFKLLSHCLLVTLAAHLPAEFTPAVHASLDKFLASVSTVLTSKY

Row | digestion of the ubiquitin fusion protein in vivo (co-expression in bacteria) [1] [%] | Substance | % Kill in the CFU-MIX cycling assay, Human Alpha (100 ng/ml) + CTOP 10^-7 M (0 without CTOP; control 42; CTOP alone 36) (mu opiate receptor) [%]
1 |  | Purified human hemoglobin alpha chain (from UniProt P69905 2-142) | 20
2 | 70 | UBP1 ubiquinase (from UniProt P25037 1-809) (enzyme) | 
